Measured values: the supplement of paper PMC9112550, “Optimization of the antimicrobial peptide Bac7 by deep mutational scanning” (BMC Biology, 2022)

Test system: Escherichia coli TOP10
Test: shrunken log2 fold change of peptide-encoding DNA abundance (4.5 h post-induction vs induction); higher = less antimicrobial activity (less host growth inhibition)
Conditions: time post-induction: 4.5 h; library: site-saturation at positions 5, 18, 19, 20
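Also: peptides expressed intracellularly from a pBAD plasmid library in pooled LB shake-flask culture, induced with 0.3% L-arabinose, DNA abundance read by NGS, three biological replicates, DESeq2 with apeglm shrinkage.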

## RRIRTRPPRLPRPRPRPKMFPRP
  shrunken log2 fold change: -0.0043

## RRIRTRPPRLPRPRPRPKMIPRP
  shrunken log2 fold change: 0.013

## RRIRTRPPRLPRPRPRPKMWPRP
  shrunken log2 fold change: 0.307

## RRIRTRPPRLPRPRPRPKNLPRP
  shrunken log2 fold change: -0.143

## RRIRTRPPRLPRPRPRPKPPPRP
  shrunken log2 fold change: 0.353

## RRIRTRPPRLPRPRPRPKQMPRP
  shrunken log2 fold change: 0.0252

## RRIRTRPPRLPRPRPRPKQWPRP
  shrunken log2 fold change: 0.158

## RRIRTRPPRLPRPRPRPKRDPRP
  shrunken log2 fold change: 0.187

## RRIRTRPPRLPRPRPRPKREPRP
  shrunken log2 fold change: 0.319

## RRIRTRPPRLPRPRPRPKSQPRP
  shrunken log2 fold change: -0.285

## RRIRTRPPRLPRPRPRPKWLPRP
  shrunken log2 fold change: 0.247

## RRIRTRPPRLPRPRPRPKYWPRP
  shrunken log2 fold change: -0.254

## RRIRTRPPRLPRPRPRPLAPPRP
  shrunken log2 fold change: 0.263

## RRIRTRPPRLPRPRPRPLDFPRP
  shrunken log2 fold change: -0.19

## RRIRTRPPRLPRPRPRPLEMPRP
  shrunken log2 fold change: 0.0834

## RRIRTRPPRLPRPRPRPLGYPRP
  shrunken log2 fold change: -0.213

## RRIRTRPPRLPRPRPRPLHGPRP
  shrunken log2 fold change: 0.184

## RRIRTRPPRLPRPRPRPLHLPRP
  shrunken log2 fold change: 0.053

## RRIRTRPPRLPRPRPRPLIRPRP
  shrunken log2 fold change: -0.133

## RRIRTRPPRLPRPRPRPLISPRP
  shrunken log2 fold change: -0.145

## RRIRTRPPRLPRPRPRPLKEPRP
  shrunken log2 fold change: 0.825

## RRIRTRPPRLPRPRPRPLLMPRP
  shrunken log2 fold change: -0.278

## RRIRTRPPRLPRPRPRPLNHPRP
  shrunken log2 fold change: -0.204

## RRIRTRPPRLPRPRPRPLNPPRP
  shrunken log2 fold change: -0.19

## RRIRTRPPRLPRPRPRPLPDPRP
  shrunken log2 fold change: -0.0997

## RRIRTRPPRLPRPRPRPLQCPRP
  shrunken log2 fold change: 0.174

## RRIRTRPPRLPRPRPRPLRHPRP
  shrunken log2 fold change: 0.252

## RRIRTRPPRLPRPRPRPLTFPRP
  shrunken log2 fold change: -0.203

## RRIRTRPPRLPRPRPRPLTNPRP
  shrunken log2 fold change: -0.0099

## RRIRTRPPRLPRPRPRPLTPPRP
  shrunken log2 fold change: -0.0473

## RRIRTRPPRLPRPRPRPLWFPRP
  shrunken log2 fold change: -0.489

## RRIRTRPPRLPRPRPRPLWQPRP
  shrunken log2 fold change: 0.0687

## RRIRTRPPRLPRPRPRPMATPRP
  shrunken log2 fold change: 0.0309

## RRIRTRPPRLPRPRPRPMCFPRP
  shrunken log2 fold change: 0.0222

## RRIRTRPPRLPRPRPRPMCMPRP
  shrunken log2 fold change: -0.0542

## RRIRTRPPRLPRPRPRPMDAPRP
  shrunken log2 fold change: 0.0575

## RRIRTRPPRLPRPRPRPMEFPRP
  shrunken log2 fold change: -0.0956

## RRIRTRPPRLPRPRPRPMEMPRP
  shrunken log2 fold change: -0.236

## RRIRTRPPRLPRPRPRPMFIPRP
  shrunken log2 fold change: -0.305

## RRIRTRPPRLPRPRPRPMFQPRP
  shrunken log2 fold change: -0.446

## RRIRTRPPRLPRPRPRPMGGPRP
  shrunken log2 fold change: -0.0576

## RRIRTRPPRLPRPRPRPMGHPRP
  shrunken log2 fold change: -0.118

## RRIRTRPPRLPRPRPRPMGWPRP
  shrunken log2 fold change: 0.293

## RRIRTRPPRLPRPRPRPMGYPRP
  shrunken log2 fold change: 0.0627

## RRIRTRPPRLPRPRPRPMHWPRP
  shrunken log2 fold change: 0.209

## RRIRTRPPRLPRPRPRPMIFPRP
  shrunken log2 fold change: -0.738

## RRIRTRPPRLPRPRPRPMLLPRP
  shrunken log2 fold change: -0.0757

## RRIRTRPPRLPRPRPRPMMAPRP
  shrunken log2 fold change: 0.0689

## RRIRTRPPRLPRPRPRPMMCPRP
  shrunken log2 fold change: -0.59

## RRIRTRPPRLPRPRPRPMMRPRP
  shrunken log2 fold change: 0.933

## RRIRTRPPRLPRPRPRPMPGPRP
  shrunken log2 fold change: 0.106

## RRIRTRPPRLPRPRPRPMPRPRP
  shrunken log2 fold change: 0.175

## RRIRTRPPRLPRPRPRPMPWPRP
  shrunken log2 fold change: 0.253

## RRIRTRPPRLPRPRPRPMQPPRP
  shrunken log2 fold change: 0.0715

## RRIRTRPPRLPRPRPRPMRIPRP
  shrunken log2 fold change: -0.0254

## RRIRTRPPRLPRPRPRPMRSPRP
  shrunken log2 fold change: 0.232

## RRIRTRPPRLPRPRPRPMRYPRP
  shrunken log2 fold change: -0.0953

## RRIRTRPPRLPRPRPRPMSFPRP
  shrunken log2 fold change: -0.0183

## RRIRTRPPRLPRPRPRPMVVPRP
  shrunken log2 fold change: 0.0636

## RRIRTRPPRLPRPRPRPMYAPRP
  shrunken log2 fold change: -0.121

## RRIRTRPPRLPRPRPRPMYGPRP
  shrunken log2 fold change: -0.000687

## RRIRTRPPRLPRPRPRPMYQPRP
  shrunken log2 fold change: -0.416

## RRIRTRPPRLPRPRPRPNAKPRP
  shrunken log2 fold change: -0.0531

## RRIRTRPPRLPRPRPRPNEHPRP
  shrunken log2 fold change: -0.198

## RRIRTRPPRLPRPRPRPNEPPRP
  shrunken log2 fold change: -0.102

## RRIRTRPPRLPRPRPRPNIWPRP
  shrunken log2 fold change: 0.682

## RRIRTRPPRLPRPRPRPNKMPRP
  shrunken log2 fold change: 0.0425

## RRIRTRPPRLPRPRPRPNMRPRP
  shrunken log2 fold change: 0.33

## RRIRTRPPRLPRPRPRPNPGPRP
  shrunken log2 fold change: -0.0312

## RRIRTRPPRLPRPRPRPNQFPRP
  shrunken log2 fold change: -0.205

## RRIRTRPPRLPRPRPRPNRIPRP
  shrunken log2 fold change: -0.294

## RRIRTRPPRLPRPRPRPNRRPRP
  shrunken log2 fold change: 0.0696

## RRIRTRPPRLPRPRPRPNRYPRP
  shrunken log2 fold change: -0.19

## RRIRTRPPRLPRPRPRPNWRPRP
  shrunken log2 fold change: 0.176

## RRIRTRPPRLPRPRPRPNYEPRP
  shrunken log2 fold change: -0.682

## RRIRTRPPRLPRPRPRPNYLPRP
  shrunken log2 fold change: -0.66

## RRIRTRPPRLPRPRPRPNYPPRP
  shrunken log2 fold change: -0.0192

## RRIRTRPPRLPRPRPRPNYSPRP
  shrunken log2 fold change: -0.382

## RRIRTRPPRLPRPRPRPPCFPRP
  shrunken log2 fold change: 0.153

## RRIRTRPPRLPRPRPRPPDPPRP
  shrunken log2 fold change: 0.197

## RRIRTRPPRLPRPRPRPPDSPRP
  shrunken log2 fold change: -0.0615

## RRIRTRPPRLPRPRPRPPESPRP
  shrunken log2 fold change: -0.0298

## RRIRTRPPRLPRPRPRPPFFPRP
  shrunken log2 fold change: 0.253

## RRIRTRPPRLPRPRPRPPFIPRP
  shrunken log2 fold change: -0.177

## RRIRTRPPRLPRPRPRPPGGPRP
  shrunken log2 fold change: 0.637

## RRIRTRPPRLPRPRPRPPGHPRP
  shrunken log2 fold change: 0.245

## RRIRTRPPRLPRPRPRPPHAPRP
  shrunken log2 fold change: 0.312

## RRIRTRPPRLPRPRPRPPHGPRP
  shrunken log2 fold change: -0.228

## RRIRTRPPRLPRPRPRPPHYPRP
  shrunken log2 fold change: 0.0354

## RRIRTRPPRLPRPRPRPPIWPRP
  shrunken log2 fold change: 0.477

## RRIRTRPPRLPRPRPRPPKNPRP
  shrunken log2 fold change: -0.0268

## RRIRTRPPRLPRPRPRPPLKPRP
  shrunken log2 fold change: -0.0323

## RRIRTRPPRLPRPRPRPPNQPRP
  shrunken log2 fold change: 0.185

## RRIRTRPPRLPRPRPRPPQVPRP
  shrunken log2 fold change: -0.0388

## RRIRTRPPRLPRPRPRPPRMPRP
  shrunken log2 fold change: 0.165

## RRIRTRPPRLPRPRPRPPSKPRP
  shrunken log2 fold change: -0.326

## RRIRTRPPRLPRPRPRPPSTPRP
  shrunken log2 fold change: 0.186

## RRIRTRPPRLPRPRPRPPVTPRP
  shrunken log2 fold change: 0.361

## RRIRTRPPRLPRPRPRPPYIPRP
  shrunken log2 fold change: -0.694

## RRIRTRPPRLPRPRPRPQAHPRP
  shrunken log2 fold change: -0.452

## RRIRTRPPRLPRPRPRPQCYPRP
  shrunken log2 fold change: -0.256

## RRIRTRPPRLPRPRPRPQECPRP
  shrunken log2 fold change: -0.0262

## RRIRTRPPRLPRPRPRPQFPPRP
  shrunken log2 fold change: -0.0282

## RRIRTRPPRLPRPRPRPQFSPRP
  shrunken log2 fold change: -0.823

## RRIRTRPPRLPRPRPRPQFTPRP
  shrunken log2 fold change: -0.0397

## RRIRTRPPRLPRPRPRPQGWPRP
  shrunken log2 fold change: 0.704

## RRIRTRPPRLPRPRPRPQHCPRP
  shrunken log2 fold change: -0.0947

## RRIRTRPPRLPRPRPRPQHIPRP
  shrunken log2 fold change: -0.554

## RRIRTRPPRLPRPRPRPQKGPRP
  shrunken log2 fold change: -0.00821

## RRIRTRPPRLPRPRPRPQKKPRP
  shrunken log2 fold change: 0.0215

## RRIRTRPPRLPRPRPRPQKYPRP
  shrunken log2 fold change: -0.263

## RRIRTRPPRLPRPRPRPQLQPRP
  shrunken log2 fold change: -0.0711

## RRIRTRPPRLPRPRPRPQMHPRP
  shrunken log2 fold change: -0.426

## RRIRTRPPRLPRPRPRPQMLPRP
  shrunken log2 fold change: -0.0274

## RRIRTRPPRLPRPRPRPQNVPRP
  shrunken log2 fold change: 0.0194

## RRIRTRPPRLPRPRPRPQPNPRP
  shrunken log2 fold change: 0.0183

## RRIRTRPPRLPRPRPRPQPTPRP
  shrunken log2 fold change: 0.197

## RRIRTRPPRLPRPRPRPQQCPRP
  shrunken log2 fold change: -0.0115

## RRIRTRPPRLPRPRPRPQQEPRP
  shrunken log2 fold change: 0.0173

## RRIRTRPPRLPRPRPRPQRPPRP
  shrunken log2 fold change: 0.158

## RRIRTRPPRLPRPRPRPQRWPRP
  shrunken log2 fold change: 0.137

## RRIRTRPPRLPRPRPRPQSLPRP
  shrunken log2 fold change: -0.0105

## RRIRTRPPRLPRPRPRPQSTPRP
  shrunken log2 fold change: -0.236

## RRIRTRPPRLPRPRPRPQVDPRP
  shrunken log2 fold change: -0.0209

## RRIRTRPPRLPRPRPRPQYFPRP
  shrunken log2 fold change: -0.395

## RRIRTRPPRLPRPRPRPQYGPRP
  shrunken log2 fold change: -0.082

## RRIRTRPPRLPRPRPRPQYMPRP
  shrunken log2 fold change: -1.01

## RRIRTRPPRLPRPRPRPQYVPRP
  shrunken log2 fold change: -0.336

## RRIRTRPPRLPRPRPRPRADPRP
  shrunken log2 fold change: 0.158

## RRIRTRPPRLPRPRPRPRCVPRP
  shrunken log2 fold change: -0.0783

## RRIRTRPPRLPRPRPRPRDFPRP
  shrunken log2 fold change: 0.0849

## RRIRTRPPRLPRPRPRPRDKPRP
  shrunken log2 fold change: -0.18

## RRIRTRPPRLPRPRPRPREWPRP
  shrunken log2 fold change: 0.259

## RRIRTRPPRLPRPRPRPRGAPRP
  shrunken log2 fold change: 0.382

## RRIRTRPPRLPRPRPRPRGIPRP
  shrunken log2 fold change: -0.0284

## RRIRTRPPRLPRPRPRPRGTPRP
  shrunken log2 fold change: 0.197

## RRIRTRPPRLPRPRPRPRHVPRP
  shrunken log2 fold change: 0.0629

## RRIRTRPPRLPRPRPRPRIFPRP
  shrunken log2 fold change: -0.158

## RRIRTRPPRLPRPRPRPRKPPRP
  shrunken log2 fold change: 0.225

## RRIRTRPPRLPRPRPRPRMAPRP
  shrunken log2 fold change: 0.288

## RRIRTRPPRLPRPRPRPRMFPRP
  shrunken log2 fold change: -0.0163

## RRIRTRPPRLPRPRPRPRNAPRP
  shrunken log2 fold change: 0.0522

## RRIRTRPPRLPRPRPRPRNGPRP
  shrunken log2 fold change: -0.0659

## RRIRTRPPRLPRPRPRPRNHPRP
  shrunken log2 fold change: -0.345

## RRIRTRPPRLPRPRPRPRPIPRP
  shrunken log2 fold change: -0.138

## RRIRTRPPRLPRPRPRPRQIPRP
  shrunken log2 fold change: 0.0896

## RRIRTRPPRLPRPRPRPRQMPRP
  shrunken log2 fold change: 0.641

## RRIRTRPPRLPRPRPRPRQNPRP
  shrunken log2 fold change: 0.067

## RRIRTRPPRLPRPRPRPRRAPRP
  shrunken log2 fold change: 0.523

## RRIRTRPPRLPRPRPRPRRVPRP
  shrunken log2 fold change: 0.329
